Experiment [1] concerns the target T1, human MSLN-R1-his protein (human, UniProt Q13421 296-390).
T1 construct: Made in HEK293E cells, purified on nickel column; also called hMSLN-R1-his; human MSLN-R1 protein; not shown: His tag
T1 chain: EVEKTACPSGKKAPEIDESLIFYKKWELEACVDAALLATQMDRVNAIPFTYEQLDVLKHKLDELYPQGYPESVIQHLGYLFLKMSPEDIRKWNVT
As to the kind of experiment: ELISA, coated antigen, antibody 0.02 nM.

For experiment [2], the target named is T1, human MSLN-R1-his protein. Nature of the experiment: ELISA, coated antigen, antibody 200 nM.
Procedure: (§1) The plate was sealed with a plastic film and incubated at 4° C. overnight. The next day, the plate was washed twice with PBST, and a blocking buffer [PBS+2% (w/w) BSA] was added for blocking at room temperature for 2 h. The blocking buffer was discarded, and a chimeric antibody or negative control antibody serially diluted from 100 nM was added at 50 μL/well. After incubation at 37° C. for 2 h, the plate was washed 3 times with PBST. […] After incubation at 37° C. for 2 h, the plate was washed 5 times with PBST. A TMB substrate was added at 50 μL/well for incubation at room temperature for 5-10 min, and then a stop solution (1.0 N HCl) was added at 50 μL/well.
Experiment [3] addresses T1, human MSLN-R1-his protein. Nature of the experiment: ELISA, coated antigen, antibody 0.002 nM. On the technique in general: ELISA stands for enzyme-linked immunosorbent assay.
Experiment [4] concerns the target T1, human MSLN-R1-his protein. As to the kind of experiment: ELISA, coated antigen, antibody 0.2 nM.
Procedure: as §1
The target of experiment [5] is T2, human MSLN-FL-his protein (human, UniProt Q13421 296-580).
T2 construct: Made in HEK293E cells, purified on nickel column; also called hMSLN-FL-his; human MSLN full-length protein; not shown: His tag
As to the kind of experiment: ELISA, coated antigen, antibody 0.02 nM.

For experiment [6], the target named is T1, human MSLN-R1-his protein. Nature of the experiment: ELISA, coated antigen, no antibody (blank).
The target of experiment [7] is T2, human MSLN-FL-his protein. Nature of the experiment: ELISA, coated antigen, antibody 20 nM.
Procedure: as §1
Experiment [8] has as its target T2, human MSLN-FL-his protein. Nature of the experiment: ELISA, coated antigen, antibody 200 nM.
Procedure: as §1
The target in experiment [9] is T1, human MSLN-R1-his protein. Nature of the experiment: ELISA, coated antigen, antibody 20 nM.
Procedure: as §1
Experiment [10] has as its target T2, human MSLN-FL-his protein. As to the kind of experiment: ELISA, coated antigen, no antibody (blank).
Procedure: as §1
Experiment [11] deals with T1, human MSLN-R1-his protein. Nature of the experiment: ELISA, coated antigen, antibody 2 nM.
Procedure: as §1
The target in experiment [12] is T2, human MSLN-FL-his protein. Nature of the experiment: ELISA, coated antigen, antibody 0.0002 nM.
Experiment [13] has as its target T2, human MSLN-FL-his protein. Nature of the experiment: ELISA, coated antigen, antibody 2 nM.
Procedure: as §1
The target of experiment [14] is T1, human MSLN-R1-his protein. Nature of the experiment: ELISA, coated antigen, antibody 0.0002 nM.
Procedure: as §1
Experiment [15] addresses T2, human MSLN-FL-his protein. As to the kind of experiment: ELISA, coated antigen, antibody 0.002 nM.
Procedure: as §1
Experiment [16] concerns the target T2, human MSLN-FL-his protein. As to the kind of experiment: ELISA, coated antigen, antibody 0.2 nM.
Procedure: as §1

The source of these data is patent US20250250357A1 (NANJING ZAIMING PHARMACEUTICAL, published 2025).

B1: S009-F7.23.19 chimeric antibody (antibody, human IgG1, kappa, V domains shown)
VH: EVKLVESGGGLVQPGGSLSLSCAASGFTFTDYYMSWVRQPPGKALEWLGFIRSKANAYTTEYSASVKGRFTISRDNSQSILYLQMNDLRAEDSATYYCARYYYYGSGYVWYFDVWGTGTTVTVSS
VL: DIVMTQSQKFMSTSVGDRVSVTCKASQSVGTNVAWYQQKPGQFPKALIYSASYRYSGVPDRFTGSGSGTDFTLTIINVQSEDLAEYFCQQYNSYPLTFGAGTKLELKR
notes: Human-murine chimeric antibody, human IgG1/kappa constant regions
In the case of B1, the OD450 is 0.05 in experiment [1]; 0.08 in experiment [2]; 0.05 in experiment [3]; 0.05 in [4]; 1.32 in experiment [5]; 0.06 in [6]. The OD450 in [7] turned out to be 2.46; in [8] it was 2.5; in experiment [9] it was 0.05; in experiment [10], 0.06; in experiment [11], 0.05; in experiment [12], 0.11. Further, the OD450 in experiment [13] worked out at 2.4; in experiment [14] it was 0.05; in experiment [15], 0.41; in [16], 2.22.

B2: S009-F7.33.24 chimeric antibody (antibody, human IgG1, kappa, V domains shown)
VH: QVQLQQPGTELVKPGASVKLSCKASGYTFTSYWMHWVKQRPGQGLEWIGNVNPSNGGSNYNEKFKNKATLTVDKSSSTADMQLNSLTSEDSAVYYCAPHYIGSRPGFAYWGQGTLVTVSG
VL: DIVMTQSQKFMSTSVGDRVSVTCKASQNVGTNIAWYQQKPGQSPKALIYSASYRYSGVPDRFTGSGSGTDFTLTITNVQSEDLAEYFCQQYNSYPLTFGGGTKVEIKR
notes: as for B1
Turning to B2, the OD450 turned out to be 0.06 in [1]; 0.15 in [2]; 0.06 in experiment [3]; 0.05 in [4]; 2.01 in [5]; 0.06 in experiment [6]. The OD450 in [7] came out at 2.53; in experiment [8], 2.48; in experiment [9] it was 0.08; in experiment [10] it was 0.06; in experiment [11], 0.06; in experiment [12] it was 0.26. Besides, the OD450 in experiment [13] was 2.54; in experiment [14], 0.06; in experiment [15], 1.06; in experiment [16], 2.6.

B3: S009-F7.48.1 chimeric antibody (antibody, human IgG1, kappa, V domains shown)
VH: QVQLQQPGTELVKPGASVKLSCKASGYTFTSYWMHWVKQRPGQGLEWIGNINPSNGGTNNNENFKSKATLTVDTSSSTAYMQLSSLTSEDSAVYYCVRNGYHGYWYFDVWGTGTTVTVSS
VL: DIVMTQSQKFMSTSVGDRVSVTCKASQNVGTNVAWYQQQPGQSPKALIYSASYRYSGVPDRFTGSVSGTDFTLTISNVQSEDLAEYFCQQYNSYPLTFGGGTKLEIKR
notes: as for B1
Turning to B3, the OD450 was 0.04 in [1]; 0.07 in experiment [2]; 0.04 in [3]; 0.04 in experiment [4]; 0.86 in [5]; 0.06 in [6]. The OD450 in experiment [7] worked out at 2.21; in experiment [8], 2.62; in [9] it was 0.05; in experiment [10], 0.06; in experiment [11] it was 0.04; in experiment [12] it was 0.09. In addition, the OD450 came to 2.12 in experiment [13], 0.04 in experiment [14], 0.24 in [15] and 1.87 in experiment [16].

B4: S009-F7.30.5 chimeric antibody (antibody, human IgG1, kappa, V domains shown)
VH: QVQLQQPKTELVKPGASVKLSCKASGYIFTTYWMHWVKQRPGQGLEWIGNVNPSNGGTMYNEKFERRATLTVDKSSSTADMQLSSLTSEDSAVYYCVPHYIGSRPGFAYWGQGTLVTVSG
VL: DIVMTQSQKFMSTSVGDRVSVTCKASQNVGTNVAWYQHKPGQSPKALLYSASYRYSGVPDRFTGSGSGTDFTLTITNVQSEDLAEYFCQQYNSYPLTFGGGTKLEIKR
notes: as for B1
B4: the OD450 in experiment [1] was determined as 0.05; in [2], 0.32; in experiment [3] it was 0.05; in experiment [4] it was 0.05; in experiment [5] it was 1.77; in experiment [6], 0.06. In addition, the OD450 was found to be 2.43 in experiment [7]; 2.36 in experiment [8]; 0.1 in experiment [9]; 0.06 in experiment [10]; 0.06 in [11]; 0.36 in experiment [12]. Moreover, the OD450 in experiment [13] stood at 2.41; in [14] it was 0.05; in experiment [15], 0.96; in experiment [16] it was 2.39.

B5: S009-F7.44.20 chimeric antibody (antibody, human IgG1, kappa, V domains shown)
VH: EVQLQQSGPELVKPGASVKIPCKASGYTFTDYNMDWVKQSHGKSLEWIGDINPSTGGTIYNQKFNGKATLTEDKSASTVYMEFRSLTSDDTAVYYCARRRIGTGYFDVWGTGTTVTVSS
VL: QIVLTQSPALMSASPGEKVTLTCSASSSVISSYLSWYQQKPGSSPKLLIYRTSNLASGVPARFSGSGSGTSYSLTISSMEAEDAASYFCHQWSSFPYTFGGGTKLEIKR
notes: as for B1
With B5, the OD450 in experiment [1] turned out to be 0.04; in experiment [2], 0.07; in experiment [3], 0.04; in [4], 0.04; in experiment [5], 1.82; in experiment [6] it was 0.06. The OD450 in experiment [7] was 2.21; in [8], 2.36; in experiment [9], 0.05; in [10], 0.06; in experiment [11], 0.04; in experiment [12], 0.26. For the same molecule, the OD450 was 2.24 in [13], 0.04 in [14], 0.93 in experiment [15] and 2.26 in experiment [16].

B6: S009-F7.41.18 chimeric antibody (antibody, human IgG1, kappa, V domains shown)
VH: QVQLQQPGTELVKPGASVKLSCKASDYTFTSYWMHWVKQRPGQGLEWIGSINPSNGDTYYNEKFKNKATLTVDKSSSTAYMQLSSLTSDDSAVYYCARGWYFDVWGTGTTVTVSS
VL: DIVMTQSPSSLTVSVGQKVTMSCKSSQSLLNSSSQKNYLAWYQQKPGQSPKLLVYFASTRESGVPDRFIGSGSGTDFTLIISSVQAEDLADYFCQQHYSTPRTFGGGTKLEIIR
notes: as for B1
Turning to B6, the OD450 in experiment [1] amounted to 0.05; in experiment [2], 0.09; in experiment [3], 0.06; in [4], 0.06; in experiment [5], 1; in experiment [6], 0.06. Also, the OD450 in experiment [7] amounted to 2.24; in experiment [8], 2.3; in experiment [9], 0.07; in experiment [10], 0.06; in experiment [11] it was 0.06; in experiment [12] it was 0.08. For the same molecule, the OD450 turned out to be 2.26 in [13], 0.06 in experiment [14], 0.25 in experiment [15] and 2.04 in experiment [16].

B7: S009-F7.26.15 chimeric antibody (antibody, human IgG1, kappa, V domains shown)
VH: DVQLQESGPGLVKPSQTVFLTCTVTGISITTGNYRWSWIRQFPGNKLEWIGYIYYTGFITYNPSLTSRTTITRDTPKNQFFLEMKSLTAEDTATYYCARDDYDYDVFAYWGQGTLVTVSA
VL: DIQMTQSPASLSASVGETVTITCRASGNIHNYLAWYHQKQGKSPQFLVYKAKTLADGVPSRFSGSGSGTQYSLKINRLQPEDFGSYYCQHFLSIPLTFGAGTKLELKR
notes: as for B1
For B7, the OD450 in [1] is 0.05; in [2] it was 0.12; in experiment [3], 0.05; in experiment [4] it was 0.05; in experiment [5], 1.76; in experiment [6] it was 0.06. Also, the OD450 in experiment [7] was 2.52; in [8], 2.39; in [9], 0.06; in [10], 0.06; in experiment [11], 0.05; in [12], 0.25. Further, the OD450 in [13] turned out to be 2.43; in experiment [14], 0.04; in experiment [15], 0.91; in experiment [16], 2.33.
